B1: 抗CA724重组抗体 (recombinant anti-CA724 antibody made in Example 1, expressed in Expi293F cells) (antibody, mouse IgG1, kappa, V domains shown)
VH: QVQLQQSDAELVKPGASVKISCKASGYTFTDHAIHWAKQKPEQGLEWIGYISPGNDDIKYNEKFKGKATLTADKSSSTAYMQLNSLTSEDSAVYFCKRSYYGHWGQGTTLTVSS
VL: DIQMTQSPASLSVSVGETVTITCRASENIYSNLAWYQQKQGKSPQLLVYAATNLADGVPSRFSGSGSGTQYSLKINSLQSEDFGSYYCQHFWGTPYTFGGGTRLEIKG
B2: 抗CA724单克隆抗体 (anti-CA724 monoclonal antibody purified from the hybridoma of Example 1) (antibody, V domains shown)
VH: QVQLQQSDAELVKPGASVKISCKASGYTFTDHAIHWAKQKPEQGLEWIGYISPGNDDIKYNEKFKGKATLTADKSSSTAYMQLNSLTSEDSAVYFCKRSYYGHWGQGTTLTVSS
VL: DIQMTQSPASLSVSVGETVTITCRASENIYSNLAWYQQKQGKSPQLLVYAATNLADGVPSRFSGSGSGTQYSLKINSLQSEDFGSYYCQHFWGTPYTFGGGTRLEIK

Target: CA724抗原 (CA724)
Assay: biolayer interferometry type kinetics, antibody captured on AMQ biosensor, antigen in solution (diluted 10-fold)

Binder | Kd [nM] | koff [s⁻¹] | kon [M⁻¹ s⁻¹]
B1 | 18 | 0.00109 | 60700
B2 | 16.4 | 0.000897 | 54700

From patent CN113880948A
